Results published in patent US20190336574A1 (TRUSTEES OF PRINCETON UNIVERSITY, published 2019).

T1: His6-SND1ΔC (SND1 residues 1-339) (human, UniProt Q7KZF4 1-339)
T1 construct: not shown: N-terminal His tag (His6, His8 or His) with TEV site, pQlink vector
T1 sequence: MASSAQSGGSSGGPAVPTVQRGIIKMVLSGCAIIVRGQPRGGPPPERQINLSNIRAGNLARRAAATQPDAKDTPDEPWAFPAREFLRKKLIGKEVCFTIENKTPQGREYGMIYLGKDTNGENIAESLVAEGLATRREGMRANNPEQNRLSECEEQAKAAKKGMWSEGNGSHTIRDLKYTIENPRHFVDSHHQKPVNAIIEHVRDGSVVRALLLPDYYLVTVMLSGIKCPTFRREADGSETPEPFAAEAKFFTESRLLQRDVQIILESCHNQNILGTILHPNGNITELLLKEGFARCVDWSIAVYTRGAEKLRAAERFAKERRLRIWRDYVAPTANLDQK

T2: HA-SND1, full-length human, wild type (human, UniProt Q7KZF4 1-910)
T2 construct: Full-length, HA-tagged; Expressed in HEK293T cells, tested in lysate; also called HA-tagged SND1; WT HA-SND1
T2 sequence: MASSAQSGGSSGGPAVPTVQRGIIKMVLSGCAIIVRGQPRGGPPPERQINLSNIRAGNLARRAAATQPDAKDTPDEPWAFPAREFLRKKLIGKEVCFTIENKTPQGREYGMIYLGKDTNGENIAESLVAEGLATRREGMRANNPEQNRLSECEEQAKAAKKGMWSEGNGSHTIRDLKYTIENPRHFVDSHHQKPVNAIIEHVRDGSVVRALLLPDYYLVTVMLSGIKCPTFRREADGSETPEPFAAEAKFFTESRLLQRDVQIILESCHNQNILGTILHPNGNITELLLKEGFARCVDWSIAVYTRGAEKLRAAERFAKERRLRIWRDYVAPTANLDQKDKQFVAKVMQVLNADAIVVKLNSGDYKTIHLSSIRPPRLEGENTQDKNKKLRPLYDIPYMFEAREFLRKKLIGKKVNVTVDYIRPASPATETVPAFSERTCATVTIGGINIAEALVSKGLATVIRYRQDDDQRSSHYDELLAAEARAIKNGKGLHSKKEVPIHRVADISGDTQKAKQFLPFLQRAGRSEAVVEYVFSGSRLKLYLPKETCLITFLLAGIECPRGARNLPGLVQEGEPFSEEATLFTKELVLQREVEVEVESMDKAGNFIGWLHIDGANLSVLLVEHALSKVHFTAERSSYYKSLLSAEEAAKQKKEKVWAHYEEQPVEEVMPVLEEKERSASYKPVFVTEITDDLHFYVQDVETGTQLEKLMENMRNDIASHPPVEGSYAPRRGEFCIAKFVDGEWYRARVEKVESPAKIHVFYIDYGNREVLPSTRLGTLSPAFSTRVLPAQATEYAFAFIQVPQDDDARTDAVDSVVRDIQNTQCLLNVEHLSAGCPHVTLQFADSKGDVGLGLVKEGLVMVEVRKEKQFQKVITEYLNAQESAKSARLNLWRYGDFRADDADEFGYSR

T3: endogenous human SND1 (human breast cancer cells, MDA-MB-231) (human, UniProt Q7KZF4 2-910)
T3 construct: Endogenous protein in cell lysate; also called endogenous SND1 protein
T3 sequence: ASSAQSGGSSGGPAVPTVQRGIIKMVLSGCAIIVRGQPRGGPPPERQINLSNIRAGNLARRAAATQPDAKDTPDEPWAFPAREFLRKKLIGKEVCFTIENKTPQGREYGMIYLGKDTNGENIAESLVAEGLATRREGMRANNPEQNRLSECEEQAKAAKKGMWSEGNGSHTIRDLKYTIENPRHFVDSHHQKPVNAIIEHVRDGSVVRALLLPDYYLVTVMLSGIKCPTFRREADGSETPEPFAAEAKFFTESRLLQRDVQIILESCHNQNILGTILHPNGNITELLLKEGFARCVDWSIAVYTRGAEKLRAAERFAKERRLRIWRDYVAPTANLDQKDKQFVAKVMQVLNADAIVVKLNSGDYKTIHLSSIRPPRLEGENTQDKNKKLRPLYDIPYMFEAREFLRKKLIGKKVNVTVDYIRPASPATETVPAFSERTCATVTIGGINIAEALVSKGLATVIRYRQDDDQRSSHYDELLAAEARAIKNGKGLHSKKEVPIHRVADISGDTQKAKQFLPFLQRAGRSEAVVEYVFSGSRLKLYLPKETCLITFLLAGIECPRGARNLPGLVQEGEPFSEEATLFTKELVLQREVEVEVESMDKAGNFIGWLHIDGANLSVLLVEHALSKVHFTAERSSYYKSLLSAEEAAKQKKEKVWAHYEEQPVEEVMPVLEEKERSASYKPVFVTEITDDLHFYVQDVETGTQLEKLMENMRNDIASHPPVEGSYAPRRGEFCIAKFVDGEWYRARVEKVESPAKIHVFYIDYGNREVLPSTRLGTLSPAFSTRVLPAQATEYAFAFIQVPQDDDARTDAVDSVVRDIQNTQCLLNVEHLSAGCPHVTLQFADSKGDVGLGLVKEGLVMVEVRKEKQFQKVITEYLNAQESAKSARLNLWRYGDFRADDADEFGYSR


Tests used:
[1] = biological target: T1, His6-SND1ΔC (SND1 residues 1-339); assay: schematic that sums up the GST pull-downs of His6-SND1ΔC
Text: FIGS. 7A-E represents determination of key regions and residues mediating the MTDH-SND1 interaction. (FIG. 7A) Schematics of MTDH fragments and mutants with indicated SND1-binding capability. + indicates binding and − indicates no binding based on results shown below. Two putative nuclear localization signals are residues 432-451 for NLS2 and residues 561-580 for NLS3. […] (FIG. 7B) Pulldown of His6-SND1ΔC by GST-tagged MTDH fragments with indicated boundaries. The bound proteins were examined by SDS-PAGE and visualized by Coomassie blue staining. […] For (FIG. 7B) and (FIG. 7C), 1/10 of the His6-SND1ΔC input was shown, and GST alone was used as a negative control. Representative results of 3 independent experiments are shown. (FIG. 7D, FIG. 7E) Lysates from HEK293T cells expressing the indicated ectopic human SND1, AGO2 or MTDH were immunoprecipitated with anti-Myc and immunoblotted with the indicated antibodies.
To further test whether the physical interaction with SND1 is critical for the function of MTDH, detailed analysis on the interaction of the proteins was conducted. SND1 contains four N-terminal Staphylococcal nuclease (SN) repeats and a C-terminal Tudor-SN hybrid domain. […] This allowed us to use the SND1ΔC fragment for the following in vitro binding studies.

[2] = biological target: T2, HA-SND1, full-length human, wild type; assay: competition in co-IP from 293T cells with HA-SND1 and MYC-MTDH (m36 is the competitor); peptide at 50 uM; the sheet prints IP: MYC, the legend says anti-HA [26B, 26C, 26D]
Description: 293 T cells were co-transfected with HA-SND1 and MYC-MTDH. After 48 hours, the cells were collected and subject to immunoprecipitation assay. Cell lysate was incubated with anti-HA antibody or IgG overnight followed by a two hour incubation with Protein A/G beads to pull down HA-SND1 protein. The beads were washed with lysis buffer and split into five fractions.
The elution fractions and beads were collected for western blot. (FIGS. 26C and 26D) Cell lyaste was split into 6 fractions. One of the fractions was incubated with IgG and the rest were incubated with anti-HA antibody plus either buffer or indicated peptides. After 24 hours, the lysate was incubated with Protein A/G beads then the beads was washed followed by wash buffer. 50 uM of peptides was used in all the assays.

[3] = biological target: T3, endogenous human SND1 (human breast …); assay: competition in endogenous co-IP from MDA-MB-231 lysate (endogenous MTDH, m58, is the competitor); peptide at 50 uM; the sheet prints IP: MTDH, the legend says anti-SND1 [27B]
Description: Breast cancer cells MDA-MB231 were collected and subjected to IP assay. (FIG. 27A) Cell lysate was incubated with anti-SND1 antibody or IgG overnight followed by 2 hr incubation with Protein A/G beads to pull down endogenous SND1 protein. The beads were washed with lysis buffer and split into 5 fractions. Each fraction was eluted with buffer or indicated peptides for 30 min. The elution fractions and beads were collected for WB. (FIG. 27B) Cell lyaste was split into 5 fractions, and incubated with anti-SND1 antibody plus either buffer or indicated peptides. After 24 hr, the lysate was incubated with Protein A/G beads then the beads were washed in wash buffer.
The interaction interruption effects was confirmed by endogenous immunoprecipitation (IP) of a breast cancer cell line. Briefly, cell lysates from the breast cancer cell line MDA-MB-231 were collected and subjected to IP assay. FIG. 27A—Cell lysate was incubated with anti-SND1 antibody or IgG overnight followed by 2 hr incubation with Protein A/G beads to pull down endogenous SND1 protein. The beads was washed with lysis buffer and split into 5 fractions. Each fraction was eluted with buffer or indicated peptides for 30 min. The elution fractions and beads were collected for WB. FIG. 27B—Cell lyaste was split into 5 fractions, and incubated with anti-SND1 antibody plus either buffer or indicated peptides. […]

Row | Binder | binding result [1] | binding result [2] | binding result [3]
1 | GST-MTDH 406-470 (other) fusion protein: DEERASLLKSQEPIPDDQKVSDDDKEKGEGALPTGKSKKKKKKKKKQGEDNSTAQDTEELEKEIR | no binding |  | 
2 | PNSDWNAPAEEWGNW (also called wild type MTDH peptide) [Peptide-wt (PNSDWNAPAEEWGNW)] |  | binds | binds
